The values below come from paper doi:10.1101/2025.05.23.655772.

Assay [1] addresses ubiquitin-specific protease 5, wild type (human) (UniProt P45974). The assay can be described thus: thermal shift assay.
Assay [2] has as its target catalytically inactive USP5 C335A (human) (UniProt P45974). The assay is described as follows: FRET or BRET. A general note: In BRET a luciferase serves as donor, and the signal depends on an acceptor being close.

Chain of catalytically inactive USP5 C335A (human) (P45974 whole entry C335A): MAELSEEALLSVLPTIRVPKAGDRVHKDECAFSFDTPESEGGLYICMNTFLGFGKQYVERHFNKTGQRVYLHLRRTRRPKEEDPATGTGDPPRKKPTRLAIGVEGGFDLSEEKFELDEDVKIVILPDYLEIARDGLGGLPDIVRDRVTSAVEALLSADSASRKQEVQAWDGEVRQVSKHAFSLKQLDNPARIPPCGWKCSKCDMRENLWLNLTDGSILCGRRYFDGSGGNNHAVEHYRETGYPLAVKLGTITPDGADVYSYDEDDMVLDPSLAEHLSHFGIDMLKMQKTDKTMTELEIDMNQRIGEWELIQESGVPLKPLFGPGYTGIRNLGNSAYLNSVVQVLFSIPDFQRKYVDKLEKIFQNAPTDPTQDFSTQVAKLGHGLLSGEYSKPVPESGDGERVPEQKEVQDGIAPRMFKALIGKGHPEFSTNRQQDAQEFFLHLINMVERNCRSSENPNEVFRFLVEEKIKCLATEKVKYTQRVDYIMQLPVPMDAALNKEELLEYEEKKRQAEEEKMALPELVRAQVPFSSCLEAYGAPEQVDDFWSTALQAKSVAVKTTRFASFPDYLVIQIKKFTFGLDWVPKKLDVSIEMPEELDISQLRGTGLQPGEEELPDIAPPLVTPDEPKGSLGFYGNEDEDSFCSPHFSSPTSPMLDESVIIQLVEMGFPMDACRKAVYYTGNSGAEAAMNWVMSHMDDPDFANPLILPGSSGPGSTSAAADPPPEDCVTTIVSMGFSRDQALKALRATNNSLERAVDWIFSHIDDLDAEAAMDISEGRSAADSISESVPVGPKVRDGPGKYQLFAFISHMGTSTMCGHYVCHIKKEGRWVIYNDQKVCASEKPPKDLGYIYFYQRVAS
Chain of ubiquitin-specific protease 5, wild type (human) (P45974 whole entry): as the sequence (P45974 whole entry C335A) above, with A335C counted along it

Consider “ISG15-PA, ISG15 propargylamide activity-based probe (from UniProt P05161 1-157)”, for which the Tm of the covalent complex in assay [1] came to 57.6 °C.

In turn, “Cy5-labelled SDE2UBL (from UniProt Q6IQ49 1-77) (domain or fragment)” yielded a Kd in assay [2] of 1000 nM.

For orientation: Kd means the equilibrium constant for the complex coming apart. A higher Kd goes with lower affinity.
